Data on three substances can be found in PMC2760139.

Data set [1] deals with DENV2 capsid protein C, mature WT (Dengue virus type 2 (cDNA clone GenBank U87411)). Kind of data set: filter binding.
For data set [2], the target named is mature dengue virus type 2 capsid (C) protein with substitutions L50S-L54S, recombinant (dengue virus type 2) (UniProt P29990). The experiment in a line: SEC-MALS. A general note: SEC sorts molecules by how far they enter the pores of the column.
Data set [3] deals with mature dengue virus type 2 capsid (C) protein, wild type, recombinant (dengue virus type 2) (UniProt P29990). The experiment in a line: SEC-MALS.

As for “DENV 5'UTR RNA probe (viral 5' terminal region nt 1-160)”, the Kd in data set [1] is 22 nM.
Regarding “mature dengue virus type 2 capsid (C) protein with substitutions L50S-L54S, recombinant (from UniProt P29990 1-100) (natural protein)”, in data set [2], the stoichiometry N amounted to 2.
Turning to “mature dengue virus type 2 capsid (C) protein, wild type, recombinant (from UniProt P29990) (natural protein)”, the stoichiometry N in data set [3] was 2.

As a reminder, the Kd is the equilibrium constant for the complex coming apart. A lower Kd goes with a tighter complex. What is called stoichiometry N is the number of molecules, sites or subunits per partner or assembly.
